Changes are numbered by the printed parent chain. In names and notes the source's numbering stands. Values belong to the binder of their own block, whether it stands above or below them.
Experiments:
[1] = target: T1, human IL-2 receptor (IL-2R) on human PBMC subsets (human, UniProt P14784 27-551; P31785 23-369); experiment: cell-based or functional assay
T1 sequence 1: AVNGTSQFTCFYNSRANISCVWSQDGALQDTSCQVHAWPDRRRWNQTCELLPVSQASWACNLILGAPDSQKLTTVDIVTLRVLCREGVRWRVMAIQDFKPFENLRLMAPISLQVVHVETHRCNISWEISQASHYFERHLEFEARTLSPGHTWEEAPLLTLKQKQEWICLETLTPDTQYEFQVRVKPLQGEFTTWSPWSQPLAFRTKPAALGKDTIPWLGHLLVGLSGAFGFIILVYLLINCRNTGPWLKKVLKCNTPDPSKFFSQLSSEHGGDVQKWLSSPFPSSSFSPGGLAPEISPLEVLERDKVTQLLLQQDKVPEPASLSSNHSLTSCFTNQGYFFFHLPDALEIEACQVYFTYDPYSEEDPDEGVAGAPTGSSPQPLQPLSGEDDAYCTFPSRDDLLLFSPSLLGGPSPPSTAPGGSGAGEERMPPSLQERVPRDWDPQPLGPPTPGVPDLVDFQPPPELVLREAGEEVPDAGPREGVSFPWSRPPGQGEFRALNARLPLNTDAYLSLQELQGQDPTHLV
T1 sequence 2: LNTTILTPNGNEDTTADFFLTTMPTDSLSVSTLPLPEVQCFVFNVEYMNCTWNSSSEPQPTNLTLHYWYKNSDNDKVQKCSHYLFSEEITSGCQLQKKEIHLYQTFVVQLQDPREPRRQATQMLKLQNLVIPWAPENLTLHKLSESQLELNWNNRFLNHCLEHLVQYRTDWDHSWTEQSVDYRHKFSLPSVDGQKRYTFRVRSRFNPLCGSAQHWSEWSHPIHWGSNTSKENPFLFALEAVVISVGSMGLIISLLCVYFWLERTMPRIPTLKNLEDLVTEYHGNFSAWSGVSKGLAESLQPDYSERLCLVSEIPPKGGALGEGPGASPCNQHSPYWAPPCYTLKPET

[2] = target: T1, human IL-2 receptor (IL-2R) on human …; experiment: cell-based or functional assay; remark: listed apart in the source
[3] = target: T1, human IL-2 receptor (IL-2R) on human …; experiment: Flow cytometry on human PBMCs gated on CD4+ T-cells; detection with goat F(ab')2 anti-human IgG-PE; gMFI as fold over background
Description: (§1) All washes and dilutions of cells, antibodies, and reagents were performed using flow buffer (1×PBS, 1% BSA, 0.1% NaN3, pH 7.4). All incubations were performed at 4° C. or on ice. Freshly thawed PBMCs were seeded at 100,000 cells/well in a 96-well round bottom plate (Corning) and incubated for 30 minutes with serially diluted test articles in a total volume of 50 μL. Cells were washed twice with 200 μL flow buffer and subsequently stained with a 0.625 μg/mL Goat F (ab′) 2 Anti-Human IgG-PE (Southern Biotech) secondary detection antibody. Fluorescently conjugated anti-CD3 (OKT3), CD4 (OKT4), CD8 (RPA-T8), CD25 (M-A251), CD127 (A019D5), and CD56 (HCD56) antibodies (BioLegend) were also included at 1:20 dilution to enable the characterization of T-cell and NK cell populations. Following a 30-minute incubation, and 2 more washes, the cells were resuspended in a final volume of 120 μL of flow buffer containing 7-AAD viability dye. The cells were analyzed on a BD FACSCelesta™, maximum events were collected, and geometric mean fluorescence intensity was plotted as a fold-over-background (cells incubated with secondary detection antibody and cell lineage marker stains only).
(§2) Cell binding was determined by flow cytometry and reported as geometric mean fluorescent intensity (gMFI) over the gMFI of cells stained only with secondary detection antibody.

[4] = target: T1, human IL-2 receptor (IL-2R) on human …; experiment: cell-based or functional assay; remark: listed apart in the source
[5] = target: T1, human IL-2 receptor (IL-2R) on human …; experiment: cell-based or functional assay; remark: listed apart in the source
[6] = target: T1, human IL-2 receptor (IL-2R) on human …; experiment: Flow cytometry on human PBMCs gated on CD4+CD25+CD127lo T-regs; detection with goat F(ab')2 anti-human IgG-PE; gMFI as fold over background
Description: as §1, §2

[7] = target: T2, cynomolgus monkey IL-2 receptor (IL-2R) on cyno PBMC subsets (cynomolgus monkey, UniProt Q38J85 27-551; A0A2K5VGJ6 23-369); experiment: Flow cytometry on cynomolgus PBMCs gated on CD3-CD159a+ NK cells; detection with anti-human IgG-PE; gMFI as fold over background
T2 construct: whole, on cells; Endogenous receptor on primary cynomolgus PBMC subsets (monkeys of Mauritian origin); CD25+ T-regs also carry the alpha chain; also called cyno IL-2R; IL2R protein of Cynomolgus macaque
T2 sequence (looked up) 1: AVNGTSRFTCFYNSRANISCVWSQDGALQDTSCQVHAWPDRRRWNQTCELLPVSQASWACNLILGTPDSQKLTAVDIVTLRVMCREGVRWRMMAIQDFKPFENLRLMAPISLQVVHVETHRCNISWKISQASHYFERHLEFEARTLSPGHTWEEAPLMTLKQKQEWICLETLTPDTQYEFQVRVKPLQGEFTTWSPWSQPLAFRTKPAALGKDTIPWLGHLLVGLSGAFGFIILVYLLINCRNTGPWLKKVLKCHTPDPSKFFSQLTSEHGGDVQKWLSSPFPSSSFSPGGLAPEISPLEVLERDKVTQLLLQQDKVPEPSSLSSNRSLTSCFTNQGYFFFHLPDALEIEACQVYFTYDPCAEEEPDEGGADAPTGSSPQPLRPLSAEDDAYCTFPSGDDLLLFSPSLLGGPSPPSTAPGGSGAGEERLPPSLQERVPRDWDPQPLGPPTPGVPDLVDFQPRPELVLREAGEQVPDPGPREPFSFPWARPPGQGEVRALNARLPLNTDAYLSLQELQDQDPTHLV
T2 sequence (looked up) 2: T1 sequence 2 with T14A, A16T, T22S, H141R, T228S, A326P

[8] = target: T1, human IL-2 receptor (IL-2R) on human …; experiment: Flow cytometry on human PBMCs gated on CD8+ T-cells; detection with goat F(ab')2 anti-human IgG-PE; gMFI as fold over background
Description: as §1, §2

[9] = target: T2, cynomolgus monkey IL-2 receptor (IL-2R) …; experiment: Flow cytometry on cynomolgus PBMCs gated on CD4+CD25+CD127lo T-regs; detection with anti-human IgG-PE; gMFI as fold over background
[10] = target: T2, cynomolgus monkey IL-2 receptor (IL-2R) …; experiment: cell-based or functional assay
[11] = target: T1, human IL-2 receptor (IL-2R) on human …; experiment: Flow cytometry on human PBMCs gated on CD3-CD56+ NK cells; detection with goat F(ab')2 anti-human IgG-PE; gMFI as fold over background
Description: as §1, §2

[12] = target: T2, cynomolgus monkey IL-2 receptor (IL-2R) …; experiment: cell-based or functional assay; remark: listed apart in the source

Ki67 (Human) EC50 [nM], CD4^+ T cells [1]: 13.2 nM | Ki67 (Human) EC50 [nM], CD8^+ T cells [1]: 5.17 nM | Ki67 (Human) EC50 [nM], NK cells [1]: 7.34 nM | Ki67 (Human) EC50 [nM], T-regs [1]: 0.81 nM | pSTAT5 (Human) EC50 [nM], CD4^+ T cells [2]: 22.9 nM | pSTAT5 (Human) EC50 [nM], CD8^+ T cells [2]: 15.5 nM | pSTAT5 (Human) EC50 [nM], NK cells [2]: 8.77 nM | pSTAT5 (Human) EC50 [nM], T-regs [2]: 13.1 nM | EC50 (read off the curve) [3]: ~30 nM | Ki67 (Human) EC50 [nM], CD4^+ T-cell [4]: 23.7 nM | Ki67 (Human) EC50 [nM], CD4^+CD25^+ T-regs [4]: 9.26 nM | Ki67 (Human) EC50 [nM], CD8^+ T-cell [4]: 25.1 nM | pSTAT5 (Human) EC50 [nM], CD4^+ T-cell [5]: 34.9 nM | pSTAT5 (Human) EC50 [nM], CD4^+CD25^+ T-regs [5]: 10.7 nM | pSTAT5 (Human) EC50 [nM], CD8^+ T-cell [5]: 21.5 nM | EC50 (read off the curve) [6]: ~10 nM | EC50 (read off the curve) [7]: ~2 nM | EC50 (read off the curve) [8]: ~20 nM | EC50 (read off the curve) [9]: ~8 nM | pSTAT5 (Cyno) EC50 [nM], CD4^+ T-cell [10]: 7.72 nM | pSTAT5 (Cyno) EC50 [nM], CD4^+CD25^+ T-regs [10]: 5.37 nM | pSTAT5 (Cyno) EC50 [nM], CD8^+ T-cell [10]: 3.31 nM | EC50 (read off the curve) [11]: ~2 nM | Ki67 (Cyno) EC50 [nM], CD4^+ T cells [12]: 14.7 nM | Ki67 (Cyno) EC50 [nM], CD8^+ T cells [12]: 14.8 nM | Ki67 (Cyno) EC50 [nM], NK cells [12]: 5.97 nM | Ki67 (Cyno) EC50 [nM], T-regs [12]: 1.25 nM
B1: HCAb1 (bispecific antibody, IgG1)
heavy 1: not shown
heavy 2: QVQLVESGGGLVKPGGSLRLSCAASGFTFSDYYMSWIRQAPGKGLEWVSYISSSGSTIYYADSVKGRFTISRDNAKNSLYLQMNSLRAEDTAVYYCARGDAVSITGDYRGQGTLVTVSSGGGGDKTHTCPPCPAPELLGGPSVFLFPPKPKDTLMISRTPEVTCVVVDVSHEDPEVKFNWYVDGVEVHNAKTKPCEEQYGSTYRCVSVLTVLHQDWLNGKEYKCKVSNKALPAPIEKTISKAKGQPREPQVYTLPPSRKEMTKNQVSLTCLVKGFYPSDIAVEWESNGQPENNYKTTPPVLKSDGSFFLYSKLTVDKSRWQQGNVFSCSVMHEALHNHYTQKSLSLSPGK
notes: Heavy-chain antibody without light chains, made of two different heavy chains; The IgG1-derived Fc carries SEFL2.2 mutations (R292C, N297G, V302C) and charge-pair substitutions; also called anti-IL2RBG heavy-chain antibody

Ki67 (Human) EC50 [nM], CD4^+ T-cell [4]: 23.9 nM | Ki67 (Human) EC50 [nM], CD4^+CD25^+ T-regs [4]: 14.6 nM | Ki67 (Human) EC50 [nM], CD8^+ T-cell [4]: 36.5 nM | pSTAT5 (Human) EC50 [nM], CD4^+ T-cell [5]: 44.6 nM | pSTAT5 (Human) EC50 [nM], CD4^+CD25^+ T-regs [5]: 13.2 nM | pSTAT5 (Human) EC50 [nM], CD8^+ T-cell [5]: 24 nM | pSTAT5 (Cyno) EC50 [nM], CD4^+ T-cell [10]: 9.36 nM | pSTAT5 (Cyno) EC50 [nM], CD4^+CD25^+ T-regs [10]: 4.29 nM | pSTAT5 (Cyno) EC50 [nM], CD8^+ T-cell [10]: 3.13 nM
B2: HCAb2 (bispecific antibody, human IgG4 S228P, F234A L235A)
heavy 1: QVQLQESSPGLVKPSETLSLTCTVSGGSISSSNWWSWVRQPPGKGLEWIGEISHSGSTNYNPSLKSRVTISVDKSKNQFSLRLSSVTAADTAVYFCGRGSWELTDAFDIRGQGTLVTVSSESKYGPPCPPCPAPEAAGGPSVFLFPPKPKDTLMISRTPEVTCVVVDVSQEDPEVQFNWYVDGVEVHNAKTKPREEQFNSTYRVVSVLTVLHQDWLNGKEYKCKVSNKGLPSSIEKTISKAKGQPREPQVYTLPPSQEEMTKNQVSLSCAVKGFYPSDIAVEWESNGQPENNYKTTPPVLDSDGSFFLVSRLTVDKSRWQEGNVFSCSVMHEALHNHYTQKSLSLSLGK
heavy 2: QVQLVESGGGLVKPGGSLRLSCAASGFTFSDYYMSWIRQAPGKGLEWVSYISSSGSTIYYADSVKGRFTISRDNAKNSLYLQMNSLRAEDTAVYYCARGDAVSITGDYRGQGTLVTVSSESKYGPPCPPCPAPEAAGGPSVFLFPPKPKDTLMISRTPEVTCVVVDVSQEDPEVQFNWYVDGVEVHNAKTKPREEQFNSTYRVVSVLTVLHQDWLNGKEYKCKVSNKGLPSSIEKTISKAKGQPREPQVYTLPPSQEEMTKNQVSLWCLVKGFYPSDIAVEWESNGQPENNYKTTPPVLDSDGSFFLYSRLTVDKSRWQEGNVFSCSVMHEALHNHYTQKSLSLSLGK

Reference: patent publication US20250313641A1 (Amgen, published 2025)
